We go through 9 variants from the supplement of paper PMC10266784.

Sequences and labels used below:
B1: library; numbered along this chain (parent)
chain: MAAAAAAAAEQQSSNGPVKKSMREKAVERRSVNKEHNSNFKAGYIPIDEDRLHKTGLRGRKGNLAICVIILLFILAVINLIITLVIWAVIRIGPNGCDSMEFHESGLLRFKQVSDMGVIHPLYKSTVGGRRNENLVITGNNQPIVFQQGTTKLSVENNKTSITSDIGMQFFDPRTQNILFSTDYETHEFHLPSGVKSLNVQKASTERITSNATSDLNIKVDGRAIVRGNEGVFIMGKTIEFHMGGNMELKAENSIILNGSVMVSTTRLPSSSSGDQLGSGDWVRYKLCMCADGTLFKVQVTSQNMGCQISDNPCGNTH

The variants in this data set derive from B1. The experiment in a line: SGCB cell-surface expression functional score (HA stain, bin4 vs bin1, normalised to synonymous) (log10 ratio); higher = more cell-surface SGCB (functional). As to the method:
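Deep mutational scan of full-length human SGCB (YFP-SGCB-HA, NNN codon sublibraries A-F) delivered by lentivirus at low MOI into ADG-HEK293 cells stably expressing SGCA, SGCD and SGCG. YFP-positive cells were stained for surface HA on unpermeabilized cells and FACS-sorted into bins. The functional score is log10(frequency in high bin 4 / frequency in low bin 1), normalised per chunk so that synonymous variants have mean 0 and SD 0.5. Scores are the median over codons and over duplicate biological replicates; scores below -0.5 are called non-functional. Scale: negative means deleterious.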
For MAAAAAAAAEQQSSNGPVKKSMREKAVERRSVNKELNSNFKAGYIPIDEDRLHKTGLRGRKGNLAICVIILLFILAVINLIITLVIWAVIRIGPNGCDSMEFHESGLLRFKQVSDMGVIHPLYKSTVGGRRNENLVITGNNQPIVFQQGTTKLSVENNKTSITSDIGMQFFDPRTQNILFSTDYETHEFHLPSGVKSLNVQKASTERITSNATSDLNIKVDGRAIVRGNEGVFIMGKTIEFHMGGNMELKAENSIILNGSVMVSTTRLPSSSSGDQLGSGDWVRYKLCMCADGTLFKVQVTSQNMGCQISDNPCGNTH [H36L], the “SGCB cell-surface expression functional score (log10)” value is -0.04.

Regarding MAAAAAAAAEQQSSNGPVKKSMREKAVERRSVNKERNSNFKAGYIPIDEDRLHKTGLRGRKGNLAICVIILLFILAVINLIITLVIWAVIRIGPNGCDSMEFHESGLLRFKQVSDMGVIHPLYKSTVGGRRNENLVITGNNQPIVFQQGTTKLSVENNKTSITSDIGMQFFDPRTQNILFSTDYETHEFHLPSGVKSLNVQKASTERITSNATSDLNIKVDGRAIVRGNEGVFIMGKTIEFHMGGNMELKAENSIILNGSVMVSTTRLPSSSSGDQLGSGDWVRYKLCMCADGTLFKVQVTSQNMGCQISDNPCGNTH [H36R], the “SGCB cell-surface expression functional score (log10)” value is -0.04.

Consider MAAAAAAAAEQQSSNGPVKKSMREKAVERRSVNKEQNSNFKAGYIPIDEDRLHKTGLRGRKGNLAICVIILLFILAVINLIITLVIWAVIRIGPNGCDSMEFHESGLLRFKQVSDMGVIHPLYKSTVGGRRNENLVITGNNQPIVFQQGTTKLSVENNKTSITSDIGMQFFDPRTQNILFSTDYETHEFHLPSGVKSLNVQKASTERITSNATSDLNIKVDGRAIVRGNEGVFIMGKTIEFHMGGNMELKAENSIILNGSVMVSTTRLPSSSSGDQLGSGDWVRYKLCMCADGTLFKVQVTSQNMGCQISDNPCGNTH [H36Q], for which the “SGCB cell-surface expression functional score (log10)” value worked out at 0.22.

For MAAAAAAAAEQQSSNGPVKKSMREKAVERRSVNKETNSNFKAGYIPIDEDRLHKTGLRGRKGNLAICVIILLFILAVINLIITLVIWAVIRIGPNGCDSMEFHESGLLRFKQVSDMGVIHPLYKSTVGGRRNENLVITGNNQPIVFQQGTTKLSVENNKTSITSDIGMQFFDPRTQNILFSTDYETHEFHLPSGVKSLNVQKASTERITSNATSDLNIKVDGRAIVRGNEGVFIMGKTIEFHMGGNMELKAENSIILNGSVMVSTTRLPSSSSGDQLGSGDWVRYKLCMCADGTLFKVQVTSQNMGCQISDNPCGNTH [H36T], the “SGCB cell-surface expression functional score (log10)” value is -0.13.

Consider MAAAAAAAAEQQSSNGPVKKSMREKAVERRSVNKEGNSNFKAGYIPIDEDRLHKTGLRGRKGNLAICVIILLFILAVINLIITLVIWAVIRIGPNGCDSMEFHESGLLRFKQVSDMGVIHPLYKSTVGGRRNENLVITGNNQPIVFQQGTTKLSVENNKTSITSDIGMQFFDPRTQNILFSTDYETHEFHLPSGVKSLNVQKASTERITSNATSDLNIKVDGRAIVRGNEGVFIMGKTIEFHMGGNMELKAENSIILNGSVMVSTTRLPSSSSGDQLGSGDWVRYKLCMCADGTLFKVQVTSQNMGCQISDNPCGNTH [H36G], for which the “SGCB cell-surface expression functional score (log10)” value came out at 0.11.

As for MAAAAAAAAEQQSSNGPVKKSMREKAVERRSVNKEWNSNFKAGYIPIDEDRLHKTGLRGRKGNLAICVIILLFILAVINLIITLVIWAVIRIGPNGCDSMEFHESGLLRFKQVSDMGVIHPLYKSTVGGRRNENLVITGNNQPIVFQQGTTKLSVENNKTSITSDIGMQFFDPRTQNILFSTDYETHEFHLPSGVKSLNVQKASTERITSNATSDLNIKVDGRAIVRGNEGVFIMGKTIEFHMGGNMELKAENSIILNGSVMVSTTRLPSSSSGDQLGSGDWVRYKLCMCADGTLFKVQVTSQNMGCQISDNPCGNTH [H36W], the “SGCB cell-surface expression functional score (log10)” value is -0.09.

In the case of MAAAAAAAAEQQSSNGPVKKSMREKAVERRSVNKEPNSNFKAGYIPIDEDRLHKTGLRGRKGNLAICVIILLFILAVINLIITLVIWAVIRIGPNGCDSMEFHESGLLRFKQVSDMGVIHPLYKSTVGGRRNENLVITGNNQPIVFQQGTTKLSVENNKTSITSDIGMQFFDPRTQNILFSTDYETHEFHLPSGVKSLNVQKASTERITSNATSDLNIKVDGRAIVRGNEGVFIMGKTIEFHMGGNMELKAENSIILNGSVMVSTTRLPSSSSGDQLGSGDWVRYKLCMCADGTLFKVQVTSQNMGCQISDNPCGNTH [H36P], the “SGCB cell-surface expression functional score (log10)” value came to 0.32.

MAAAAAAAAEQQSSNGPVKKSMREKAVERRSVNKEFNSNFKAGYIPIDEDRLHKTGLRGRKGNLAICVIILLFILAVINLIITLVIWAVIRIGPNGCDSMEFHESGLLRFKQVSDMGVIHPLYKSTVGGRRNENLVITGNNQPIVFQQGTTKLSVENNKTSITSDIGMQFFDPRTQNILFSTDYETHEFHLPSGVKSLNVQKASTERITSNATSDLNIKVDGRAIVRGNEGVFIMGKTIEFHMGGNMELKAENSIILNGSVMVSTTRLPSSSSGDQLGSGDWVRYKLCMCADGTLFKVQVTSQNMGCQISDNPCGNTH [H36F]: the “SGCB cell-surface expression functional score (log10)” value was -0.16.

As to MAAAAAAAAEQQSSNGPVKKSMREKAVERRSVNKEKNSNFKAGYIPIDEDRLHKTGLRGRKGNLAICVIILLFILAVINLIITLVIWAVIRIGPNGCDSMEFHESGLLRFKQVSDMGVIHPLYKSTVGGRRNENLVITGNNQPIVFQQGTTKLSVENNKTSITSDIGMQFFDPRTQNILFSTDYETHEFHLPSGVKSLNVQKASTERITSNATSDLNIKVDGRAIVRGNEGVFIMGKTIEFHMGGNMELKAENSIILNGSVMVSTTRLPSSSSGDQLGSGDWVRYKLCMCADGTLFKVQVTSQNMGCQISDNPCGNTH [H36K], the “SGCB cell-surface expression functional score (log10)” value came out at 0.53.
